Earlier results on two substances are cited in article PMC3210452.

The target of data set [1] is P-type voltage-gated calcium channel (UniProt P54282).
The target in data set [2] is Q-type voltage-gated calcium channel (UniProt O00555).
Data set [3] concerns the target P-type voltage-gated calcium channel (UniProt P54282). The source holds these as a separate data set.

Read-outs that look alike come from different tables or passages of the source.

Chain of UniProt P54282 (P54282 whole entry): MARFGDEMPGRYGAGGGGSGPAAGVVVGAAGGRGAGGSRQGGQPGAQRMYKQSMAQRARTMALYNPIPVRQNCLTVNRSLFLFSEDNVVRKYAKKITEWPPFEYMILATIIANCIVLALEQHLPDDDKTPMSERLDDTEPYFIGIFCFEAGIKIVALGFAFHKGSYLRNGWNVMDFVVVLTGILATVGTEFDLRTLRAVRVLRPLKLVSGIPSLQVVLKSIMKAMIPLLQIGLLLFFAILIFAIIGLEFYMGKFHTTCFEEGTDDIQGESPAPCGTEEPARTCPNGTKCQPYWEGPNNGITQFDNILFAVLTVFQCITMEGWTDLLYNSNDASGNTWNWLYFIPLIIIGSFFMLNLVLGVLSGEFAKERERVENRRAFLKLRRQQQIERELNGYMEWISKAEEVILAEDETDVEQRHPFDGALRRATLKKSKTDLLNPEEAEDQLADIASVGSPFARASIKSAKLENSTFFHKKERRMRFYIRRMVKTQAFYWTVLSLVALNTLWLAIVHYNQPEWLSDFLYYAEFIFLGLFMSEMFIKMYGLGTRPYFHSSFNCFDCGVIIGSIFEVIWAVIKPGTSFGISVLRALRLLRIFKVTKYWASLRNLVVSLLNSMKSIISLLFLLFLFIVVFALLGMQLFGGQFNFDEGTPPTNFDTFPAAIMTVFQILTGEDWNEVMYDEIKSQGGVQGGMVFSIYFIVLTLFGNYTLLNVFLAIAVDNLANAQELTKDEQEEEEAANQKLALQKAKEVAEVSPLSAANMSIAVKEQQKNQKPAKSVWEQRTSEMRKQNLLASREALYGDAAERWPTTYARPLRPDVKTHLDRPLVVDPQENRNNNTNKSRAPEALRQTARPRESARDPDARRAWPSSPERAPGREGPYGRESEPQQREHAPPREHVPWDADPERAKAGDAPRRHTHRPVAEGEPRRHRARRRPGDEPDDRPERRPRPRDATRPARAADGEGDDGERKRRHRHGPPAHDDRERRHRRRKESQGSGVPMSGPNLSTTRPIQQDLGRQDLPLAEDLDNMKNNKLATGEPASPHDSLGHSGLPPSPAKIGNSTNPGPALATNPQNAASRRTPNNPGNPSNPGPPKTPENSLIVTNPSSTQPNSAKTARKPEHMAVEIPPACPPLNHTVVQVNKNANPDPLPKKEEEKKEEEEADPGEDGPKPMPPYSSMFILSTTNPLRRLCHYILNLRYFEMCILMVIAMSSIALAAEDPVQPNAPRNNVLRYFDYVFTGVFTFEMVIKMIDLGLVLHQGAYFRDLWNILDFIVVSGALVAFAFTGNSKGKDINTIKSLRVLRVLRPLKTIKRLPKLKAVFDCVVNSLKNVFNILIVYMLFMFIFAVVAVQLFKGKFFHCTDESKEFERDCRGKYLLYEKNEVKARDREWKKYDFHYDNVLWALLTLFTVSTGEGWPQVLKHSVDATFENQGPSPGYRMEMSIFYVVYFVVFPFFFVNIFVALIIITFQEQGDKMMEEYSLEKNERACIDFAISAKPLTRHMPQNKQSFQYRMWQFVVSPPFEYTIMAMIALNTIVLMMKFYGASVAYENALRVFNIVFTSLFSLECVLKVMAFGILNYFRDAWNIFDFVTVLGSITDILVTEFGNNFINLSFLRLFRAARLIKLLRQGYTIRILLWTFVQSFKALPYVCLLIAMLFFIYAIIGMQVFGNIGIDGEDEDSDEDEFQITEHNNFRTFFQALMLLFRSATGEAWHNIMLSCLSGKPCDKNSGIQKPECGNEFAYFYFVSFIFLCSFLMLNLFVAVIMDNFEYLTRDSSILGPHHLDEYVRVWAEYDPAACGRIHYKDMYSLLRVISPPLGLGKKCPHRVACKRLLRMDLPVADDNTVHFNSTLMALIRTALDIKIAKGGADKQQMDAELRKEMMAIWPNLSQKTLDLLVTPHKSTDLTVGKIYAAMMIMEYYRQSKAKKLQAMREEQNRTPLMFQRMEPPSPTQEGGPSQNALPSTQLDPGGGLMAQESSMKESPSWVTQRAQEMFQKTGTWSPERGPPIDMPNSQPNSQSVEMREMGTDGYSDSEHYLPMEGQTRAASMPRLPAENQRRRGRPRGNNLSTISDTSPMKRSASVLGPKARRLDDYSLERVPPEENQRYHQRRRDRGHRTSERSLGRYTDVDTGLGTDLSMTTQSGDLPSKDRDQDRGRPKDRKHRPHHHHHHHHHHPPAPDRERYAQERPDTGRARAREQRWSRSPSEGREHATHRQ
Chain of UniProt O00555 (O00555 whole entry): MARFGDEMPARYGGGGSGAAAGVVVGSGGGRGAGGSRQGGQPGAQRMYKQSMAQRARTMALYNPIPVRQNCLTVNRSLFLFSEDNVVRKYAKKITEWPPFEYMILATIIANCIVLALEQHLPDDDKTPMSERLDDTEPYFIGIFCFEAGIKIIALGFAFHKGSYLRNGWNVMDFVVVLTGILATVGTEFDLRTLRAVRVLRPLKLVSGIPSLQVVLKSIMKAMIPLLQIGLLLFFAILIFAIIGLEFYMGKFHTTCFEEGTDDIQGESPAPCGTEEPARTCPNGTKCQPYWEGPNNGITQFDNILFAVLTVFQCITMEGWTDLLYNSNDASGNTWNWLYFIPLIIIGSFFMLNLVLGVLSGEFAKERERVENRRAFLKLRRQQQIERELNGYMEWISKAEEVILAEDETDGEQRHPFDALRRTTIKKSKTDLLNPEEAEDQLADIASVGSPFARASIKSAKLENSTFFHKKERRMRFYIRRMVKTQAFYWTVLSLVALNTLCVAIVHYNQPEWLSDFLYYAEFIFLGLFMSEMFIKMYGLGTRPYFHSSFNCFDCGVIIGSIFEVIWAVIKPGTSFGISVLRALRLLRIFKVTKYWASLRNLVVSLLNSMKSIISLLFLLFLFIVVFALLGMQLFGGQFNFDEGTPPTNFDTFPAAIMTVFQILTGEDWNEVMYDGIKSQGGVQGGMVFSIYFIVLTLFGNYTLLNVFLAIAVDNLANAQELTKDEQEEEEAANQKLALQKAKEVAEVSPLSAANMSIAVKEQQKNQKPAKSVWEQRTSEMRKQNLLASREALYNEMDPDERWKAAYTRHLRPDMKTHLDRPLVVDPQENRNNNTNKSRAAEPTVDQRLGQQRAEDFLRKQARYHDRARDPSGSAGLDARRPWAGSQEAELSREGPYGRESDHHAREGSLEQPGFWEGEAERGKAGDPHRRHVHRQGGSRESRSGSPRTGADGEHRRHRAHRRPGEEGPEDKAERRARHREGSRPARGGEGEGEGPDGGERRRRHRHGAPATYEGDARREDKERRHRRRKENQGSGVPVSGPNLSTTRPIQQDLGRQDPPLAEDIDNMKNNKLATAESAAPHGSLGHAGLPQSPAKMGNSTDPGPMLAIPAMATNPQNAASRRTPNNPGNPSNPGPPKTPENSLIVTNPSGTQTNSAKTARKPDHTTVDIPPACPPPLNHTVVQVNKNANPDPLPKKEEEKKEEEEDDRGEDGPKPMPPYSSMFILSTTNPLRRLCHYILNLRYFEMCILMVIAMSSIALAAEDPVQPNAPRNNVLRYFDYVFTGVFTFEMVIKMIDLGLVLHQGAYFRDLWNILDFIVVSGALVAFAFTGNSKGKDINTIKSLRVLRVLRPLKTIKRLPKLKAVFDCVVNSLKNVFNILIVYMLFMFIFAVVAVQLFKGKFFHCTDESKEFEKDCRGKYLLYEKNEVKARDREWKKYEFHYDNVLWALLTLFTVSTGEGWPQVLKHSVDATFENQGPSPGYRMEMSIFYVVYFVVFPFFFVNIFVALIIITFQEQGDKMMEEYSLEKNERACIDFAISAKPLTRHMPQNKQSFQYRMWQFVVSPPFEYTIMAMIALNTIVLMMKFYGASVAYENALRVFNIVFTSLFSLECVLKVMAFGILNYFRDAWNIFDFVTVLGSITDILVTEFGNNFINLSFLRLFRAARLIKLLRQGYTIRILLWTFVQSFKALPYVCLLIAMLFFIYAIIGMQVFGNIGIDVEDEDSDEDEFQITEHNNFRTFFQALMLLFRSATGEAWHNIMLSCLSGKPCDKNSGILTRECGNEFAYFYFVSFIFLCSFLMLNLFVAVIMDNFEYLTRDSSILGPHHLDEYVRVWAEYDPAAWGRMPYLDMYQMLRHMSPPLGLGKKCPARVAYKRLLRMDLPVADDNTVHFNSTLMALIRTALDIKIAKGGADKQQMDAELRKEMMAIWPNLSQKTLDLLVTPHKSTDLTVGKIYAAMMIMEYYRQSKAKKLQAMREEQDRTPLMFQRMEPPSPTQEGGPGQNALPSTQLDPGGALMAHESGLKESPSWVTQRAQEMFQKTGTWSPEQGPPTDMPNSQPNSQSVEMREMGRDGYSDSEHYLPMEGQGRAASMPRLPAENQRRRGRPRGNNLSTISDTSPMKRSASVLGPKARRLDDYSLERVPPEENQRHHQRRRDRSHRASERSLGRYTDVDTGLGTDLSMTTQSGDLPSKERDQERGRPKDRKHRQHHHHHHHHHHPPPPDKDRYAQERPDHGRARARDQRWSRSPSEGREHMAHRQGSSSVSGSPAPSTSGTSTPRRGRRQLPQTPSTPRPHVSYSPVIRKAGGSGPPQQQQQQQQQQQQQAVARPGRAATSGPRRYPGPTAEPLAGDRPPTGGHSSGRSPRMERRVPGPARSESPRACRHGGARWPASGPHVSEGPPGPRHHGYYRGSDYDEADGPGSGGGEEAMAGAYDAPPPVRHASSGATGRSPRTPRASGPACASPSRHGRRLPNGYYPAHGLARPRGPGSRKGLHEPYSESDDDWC

In general, Kd refers to a measure of binding affinity in units of concentration. For ω-agatoxin IVA (from UniProt P30288), the Kd in data set [1] is 2 nM; in data set [2], 100 nM.
On to ω-agatoxin IVB (from UniProt P37045), for which, in data set [3], the Kd is 3 nM.
